Experimental data from patent publication US6969517 (dated 2005).
Read-outs that look alike come from different tables or passages of the source. Each block holds one binder with its values, some of them ahead of it.

Tests used:
EpCAM (KSA) [1] = target: T1, EpCAM (KSA) (human, UniProt P16422); assay: SPR
T1 chain: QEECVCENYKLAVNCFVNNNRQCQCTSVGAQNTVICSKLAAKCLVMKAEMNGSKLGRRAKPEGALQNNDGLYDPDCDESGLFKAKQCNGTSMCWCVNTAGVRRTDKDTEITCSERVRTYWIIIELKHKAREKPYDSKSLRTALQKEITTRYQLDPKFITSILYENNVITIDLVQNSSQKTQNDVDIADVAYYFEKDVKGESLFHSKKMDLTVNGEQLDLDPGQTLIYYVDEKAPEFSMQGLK

EpCAM (KSA) [2] = target: T1, EpCAM (KSA); assay: ELISA
EpCAM (KSA) [3] = target: T1, EpCAM (KSA); assay: SPR
EpCAM (KSA) [4] = target: T1, EpCAM (KSA); assay: ELISA

Kd (EpCAM (KSA) [1]): 7.9 nM
B1: VK1/VH1-IL2 (antibody, V domains shown)
VH: QIQLVQSGPELKKPGSSVKISCKASGYTFTNYGMNWVRQAPGKGLKWMGWINTYTGEPTYADDFKGRFTITAETSTSTLYLQLNNLRSEDTATYFCVRFMSKGDYWGQGTTVTVSS
VL: QIVLTQSPASLAVSPGQRATITCSASSSVSYILWYQQKPGQPPKPWIFDTSNLASGFPSRFSGSGSGTSYTLTINSLEAEDAATYYCHQRSGYPYTFGGGTKVEIK

Kd (EpCAM (KSA) [1]): 3.1 nM
B2: VK1/VH2-IL2 (antibody, V domains shown)
VH: QIQLVQSGPELKKPGSSVKISCKASGYTFTNYGMNWVRQAPGKGLKWMGWINTYTGEPTYADDFKGRFTITAETSTSTLYLQLNNLRSEDTATYFCVRFISKGDYWGQGTTVTVSS
VL: QIVLTQSPASLAVSPGQRATITCSASSSVSYILWYQQKPGQPPKPWIFDTSNLASGFPSRFSGSGSGTSYTLTINSLEAEDAATYYCHQRSGYPYTFGGGTKVEIK

binding result (EpCAM (KSA) [2]): no binding
B3: VK6/VH6 (Construct 1) (antibody, V domains shown)
VH: QVQLVQSGAEVKKPGESVKISCKASGYTFTNYGMNWVRQAPGKGLEWMGWINTYTGEPTYAQKFQGRVTISLDTSTSTAYLQLSSLRAEDTAVYFCVRFISKGDYWGQGTSVTVSS
VL: EIVLTQSPATLSLSPGERVTLTCSASSSVSYMLWYQQKPGQAPKLLIFDTSNLASGIPARFSGSGSGTDYTLTISSLEPEDFAVYYCHQRSGYPYTFGGGTKLEIK

Kd (EpCAM (KSA) [1]): 1 nM
B4: VK8/VH7-IL2 (antibody, V domains shown)
VH: QIQLVQSGAEVKKPGETVKISCKASGYTFTNYGMNWVKQTPGKGLKWMGWINTYTGEPTYADDFKGRFAFSLETSTSTAFLQINNLRSEDTATYFCVRFISKGDYWGQGTSVTVSS
VL: EIVLTQSPATLSLSPGERVTLTCSASSSVSYMLWYQQKPGSSPKPWIFDTSNLASGFPARFSGSGSGTSYSLIISSMEAEDAATYYCHQRSGYPYTFGGGTKLEIK

Kd (EpCAM (KSA) [3]): 1 nM
B5: VK8/VH7 (Construct 3) (antibody, V domains shown)
VH: QIQLVQSGAEVKKPGETVKISCKASGYTFTNYGMNWVKQTPGKGLKWMGWINTYTGEPTYADDFKGRFAFSLETSTSTAFLQINNLRSEDTATYFCVRFISKGDYWGQGTSVTVSS
VL: EIVLTQSPATLSLSPGERVTLTCSASSSVSYMLWYQQKPGSSPKPWIFDTSNLASGFPARFSGSGSGTSYSLIISSMEAEDAATYYCHQRSGYPYTFGGGTKLEIK

Kd (EpCAM (KSA) [3]): 1 nM
B6: VK0/VH0 (hybridoma chKS-1/4) (antibody, V domains shown)
VH: QIQLVQSGPELKKPGETVKISCKASGYTFTNYGMNWVRQAPGKGLKWMGWINTYTGEPTYADDFKGRFVFSLETSASTAFLQLNNLRSEDTATYFCVRFISKGDYWGQGTSVTVSS
VL: QILLTQSPAIMSASPGEKVTMTCSASSSVSYMLWYQQKPGSSPKPWIFDTSNLASGFPARFSGSGSGTSYSLIISSMEAEDAATYYCHQRSGYPYTFGGGTKLEIK

binding result (EpCAM (KSA) [4]): no binding
B7: '369 chKS-1/4 (VK0/VH'369) (antibody, V domains shown)
VH: QIQLVQSGPELKKPGETVKISCKASGYTFTNYGMNWVKQTPGKGLKWMGWINTYTGEPTYADDFKGRFAFSLETSASTAFLQIQQPQNMRTMATYFCVRFISKGDYWGQGTSVTVSS
VL: QILLTQSPAIMSASPGEKVTMTCSASSSVSYMLWYQQKPGSSPKPWIFDTSNLASGFPARFSGSGSGTSYSLIISSMEAEDAATYYCHQRSGYPYTFGGGTKLEIK
